In US20230087785A1, “Leucine-Rich Repeat Kinase 2 Allosteric Modulators” (VIB VZW, priority 2020, published 2023):

B1: Nb42: LRRK2-specific Nanobody, SEQ ID NO: 6 (protein)
VHH: MAQVQLVESGGGLVQAGGSLRLSCAASGDVNYAVGWFRQAPRKEREFVAAINWRGDNTDYTDSVKGRFTISRDNAKNTVYLQMNSLKPEDTAVYYCAAKSAPYWYSDIAPDYWGQGTQVTVSS
modifications: Nanobody CA14259
B2: Nb1: LRRK2-specific Nanobody, SEQ ID NO: 1 (protein)
VHH: MAQVQLVESGGGLVQAGGSLRLSCVASGRIFSGNAMGWYRQAPGRQRELVAGITNGGYTNYRQFVKGRFTISRDNAKRTVYLQMNSLKPEDTAVYYCNALDREARQVDYWGQGTQVTVSS
modifications: Nanobody CA12610
B3: Nb22: LRRK2-specific Nanobody, SEQ ID NO: 9 (protein)
VHH: MAQVQLVESGGGLVQAGGSLRLSCAASGRTFSSYTMGWFRQAPGKEREFVAAIRWSGGSTYYADSVKGRFTISRDNAKNTVYLQMNSLKPEDTAVYYCAASDRGGFIATSGGWMDYWGKGTQVTVSS
modifications: Nanobody CA13611
B4: Nb23: LRRK2-specific Nanobody, SEQ ID NO: 3 (protein)
VHH: MAQVQLVESGGGLVQAGGSLRLSCAASGRTFSRYTMGWFRQAPGKDREFVARITTSGAVTTYADSAKGRFTISRDNAKNTVYLQMNTLKPEDTAVYYCAAGQGQLSSQSRFVDYWGQGTQVTVSS
modifications: Nanobody CA13612
B5: Nb6: LRRK2-specific Nanobody, SEQ ID NO: 2 (protein)
VHH: MAQVQLVESGGGLVQAGGSLRLSCAASGSIFSPTAMGWYRQAPGKERELVAGITSGGYTNYRNFARGRFTISRDNAKKTVYLQMNSLNPEDTAVYYCNTLTISWSWGQGTQVTVSS
modifications: Nanobody CA12618

What was measured:
[1] = molecular target: T1, endogenous LRRK2 (Mus musculus, UniProt Q5S006); assay: Colocalization of GFP-Nbs with endogenous LRRK2 on zymosan-containing phagosomes in RAW264.7 cells; type: cell-based; settings: RAW264.7 cells transfected with GFP-Nbs, zymosan 30 mins, fixed cells
T1 construct: endogenous in cells; host or cells: RAW264.7
T1 sequence (Q5S006 whole entry): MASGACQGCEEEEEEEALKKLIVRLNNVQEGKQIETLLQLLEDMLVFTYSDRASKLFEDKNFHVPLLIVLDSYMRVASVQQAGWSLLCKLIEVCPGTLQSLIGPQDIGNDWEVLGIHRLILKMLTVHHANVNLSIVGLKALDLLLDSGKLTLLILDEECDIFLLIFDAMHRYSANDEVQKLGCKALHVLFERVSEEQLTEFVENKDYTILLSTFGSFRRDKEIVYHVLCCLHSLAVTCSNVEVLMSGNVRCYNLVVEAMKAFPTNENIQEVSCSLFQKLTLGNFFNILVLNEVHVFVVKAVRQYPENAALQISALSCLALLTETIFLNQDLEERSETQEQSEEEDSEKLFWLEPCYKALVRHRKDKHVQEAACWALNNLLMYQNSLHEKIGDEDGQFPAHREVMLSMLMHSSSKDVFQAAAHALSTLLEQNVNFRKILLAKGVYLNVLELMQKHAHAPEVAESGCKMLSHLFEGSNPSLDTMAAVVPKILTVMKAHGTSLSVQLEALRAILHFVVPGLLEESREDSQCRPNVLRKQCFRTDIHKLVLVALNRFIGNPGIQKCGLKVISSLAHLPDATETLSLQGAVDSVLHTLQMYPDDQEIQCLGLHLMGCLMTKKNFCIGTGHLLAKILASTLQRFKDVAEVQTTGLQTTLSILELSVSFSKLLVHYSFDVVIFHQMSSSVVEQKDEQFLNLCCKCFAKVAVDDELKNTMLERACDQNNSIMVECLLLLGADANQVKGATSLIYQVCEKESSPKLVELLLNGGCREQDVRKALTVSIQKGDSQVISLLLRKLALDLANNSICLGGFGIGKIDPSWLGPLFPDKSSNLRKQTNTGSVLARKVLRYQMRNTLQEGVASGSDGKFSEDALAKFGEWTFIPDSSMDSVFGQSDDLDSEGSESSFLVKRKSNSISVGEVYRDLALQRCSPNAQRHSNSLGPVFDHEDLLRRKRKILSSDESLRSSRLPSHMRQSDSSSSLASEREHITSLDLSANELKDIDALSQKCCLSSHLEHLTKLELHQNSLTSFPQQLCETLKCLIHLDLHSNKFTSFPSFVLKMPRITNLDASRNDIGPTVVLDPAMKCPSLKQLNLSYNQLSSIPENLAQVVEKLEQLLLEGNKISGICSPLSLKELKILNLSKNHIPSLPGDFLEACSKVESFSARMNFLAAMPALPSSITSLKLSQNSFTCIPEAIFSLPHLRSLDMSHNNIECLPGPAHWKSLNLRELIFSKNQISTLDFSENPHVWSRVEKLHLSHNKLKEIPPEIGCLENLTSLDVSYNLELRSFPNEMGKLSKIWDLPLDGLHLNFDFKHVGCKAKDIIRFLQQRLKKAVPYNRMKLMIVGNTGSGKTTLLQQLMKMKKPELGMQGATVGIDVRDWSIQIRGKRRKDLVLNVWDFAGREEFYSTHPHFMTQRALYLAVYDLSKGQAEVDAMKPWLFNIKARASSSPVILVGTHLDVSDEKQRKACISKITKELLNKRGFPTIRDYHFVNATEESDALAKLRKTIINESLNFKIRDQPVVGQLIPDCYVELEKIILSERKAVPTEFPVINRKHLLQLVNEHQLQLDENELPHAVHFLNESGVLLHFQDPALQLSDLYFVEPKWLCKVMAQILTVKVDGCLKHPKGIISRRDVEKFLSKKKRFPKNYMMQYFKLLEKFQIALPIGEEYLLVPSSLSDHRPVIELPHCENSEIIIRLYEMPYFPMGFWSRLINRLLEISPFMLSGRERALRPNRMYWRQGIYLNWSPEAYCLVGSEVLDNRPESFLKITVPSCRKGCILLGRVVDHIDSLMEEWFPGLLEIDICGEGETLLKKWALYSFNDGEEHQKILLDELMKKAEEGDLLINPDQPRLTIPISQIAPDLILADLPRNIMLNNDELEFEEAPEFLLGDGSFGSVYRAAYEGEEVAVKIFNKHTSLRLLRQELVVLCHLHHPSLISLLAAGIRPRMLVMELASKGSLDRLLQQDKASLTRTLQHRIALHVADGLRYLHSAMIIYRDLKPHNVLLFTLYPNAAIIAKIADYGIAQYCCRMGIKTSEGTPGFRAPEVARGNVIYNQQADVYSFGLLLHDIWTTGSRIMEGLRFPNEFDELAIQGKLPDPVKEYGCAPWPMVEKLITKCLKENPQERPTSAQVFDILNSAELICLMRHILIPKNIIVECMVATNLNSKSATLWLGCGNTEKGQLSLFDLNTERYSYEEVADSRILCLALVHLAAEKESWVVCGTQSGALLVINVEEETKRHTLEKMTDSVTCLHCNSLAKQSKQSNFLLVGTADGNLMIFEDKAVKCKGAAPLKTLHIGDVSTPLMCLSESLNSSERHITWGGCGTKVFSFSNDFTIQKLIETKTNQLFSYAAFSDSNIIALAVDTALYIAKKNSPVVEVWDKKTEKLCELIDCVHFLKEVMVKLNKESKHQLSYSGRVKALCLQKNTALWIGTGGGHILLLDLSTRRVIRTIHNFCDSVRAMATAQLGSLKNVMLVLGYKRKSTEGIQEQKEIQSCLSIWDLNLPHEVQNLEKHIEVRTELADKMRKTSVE

[2] = molecular target: T2, LRRK2 (Homo sapiens, UniProt Q5S007, M2397T/R50H); assay: Determination of kinase inhibition mechanism (Michaelis-Menten curves at varying ATP); type: biochemical; settings: for mechanism of inhibition vis-a-vis ATP as substrate: Lineweaver-Burk plot and global fit; for α-value: global fit, mixed inhibition model, 10 μM AQT0615, varying ATP
T2 construct: Full-length human LRRK2 was expressed and purified based on previously developed protocols; SF tag (FLAG-tag + Twin-Strep-tag); made in house; host or cells: HEK 293T
T2 sequence (Q5S007 whole entry R50H/M2397T): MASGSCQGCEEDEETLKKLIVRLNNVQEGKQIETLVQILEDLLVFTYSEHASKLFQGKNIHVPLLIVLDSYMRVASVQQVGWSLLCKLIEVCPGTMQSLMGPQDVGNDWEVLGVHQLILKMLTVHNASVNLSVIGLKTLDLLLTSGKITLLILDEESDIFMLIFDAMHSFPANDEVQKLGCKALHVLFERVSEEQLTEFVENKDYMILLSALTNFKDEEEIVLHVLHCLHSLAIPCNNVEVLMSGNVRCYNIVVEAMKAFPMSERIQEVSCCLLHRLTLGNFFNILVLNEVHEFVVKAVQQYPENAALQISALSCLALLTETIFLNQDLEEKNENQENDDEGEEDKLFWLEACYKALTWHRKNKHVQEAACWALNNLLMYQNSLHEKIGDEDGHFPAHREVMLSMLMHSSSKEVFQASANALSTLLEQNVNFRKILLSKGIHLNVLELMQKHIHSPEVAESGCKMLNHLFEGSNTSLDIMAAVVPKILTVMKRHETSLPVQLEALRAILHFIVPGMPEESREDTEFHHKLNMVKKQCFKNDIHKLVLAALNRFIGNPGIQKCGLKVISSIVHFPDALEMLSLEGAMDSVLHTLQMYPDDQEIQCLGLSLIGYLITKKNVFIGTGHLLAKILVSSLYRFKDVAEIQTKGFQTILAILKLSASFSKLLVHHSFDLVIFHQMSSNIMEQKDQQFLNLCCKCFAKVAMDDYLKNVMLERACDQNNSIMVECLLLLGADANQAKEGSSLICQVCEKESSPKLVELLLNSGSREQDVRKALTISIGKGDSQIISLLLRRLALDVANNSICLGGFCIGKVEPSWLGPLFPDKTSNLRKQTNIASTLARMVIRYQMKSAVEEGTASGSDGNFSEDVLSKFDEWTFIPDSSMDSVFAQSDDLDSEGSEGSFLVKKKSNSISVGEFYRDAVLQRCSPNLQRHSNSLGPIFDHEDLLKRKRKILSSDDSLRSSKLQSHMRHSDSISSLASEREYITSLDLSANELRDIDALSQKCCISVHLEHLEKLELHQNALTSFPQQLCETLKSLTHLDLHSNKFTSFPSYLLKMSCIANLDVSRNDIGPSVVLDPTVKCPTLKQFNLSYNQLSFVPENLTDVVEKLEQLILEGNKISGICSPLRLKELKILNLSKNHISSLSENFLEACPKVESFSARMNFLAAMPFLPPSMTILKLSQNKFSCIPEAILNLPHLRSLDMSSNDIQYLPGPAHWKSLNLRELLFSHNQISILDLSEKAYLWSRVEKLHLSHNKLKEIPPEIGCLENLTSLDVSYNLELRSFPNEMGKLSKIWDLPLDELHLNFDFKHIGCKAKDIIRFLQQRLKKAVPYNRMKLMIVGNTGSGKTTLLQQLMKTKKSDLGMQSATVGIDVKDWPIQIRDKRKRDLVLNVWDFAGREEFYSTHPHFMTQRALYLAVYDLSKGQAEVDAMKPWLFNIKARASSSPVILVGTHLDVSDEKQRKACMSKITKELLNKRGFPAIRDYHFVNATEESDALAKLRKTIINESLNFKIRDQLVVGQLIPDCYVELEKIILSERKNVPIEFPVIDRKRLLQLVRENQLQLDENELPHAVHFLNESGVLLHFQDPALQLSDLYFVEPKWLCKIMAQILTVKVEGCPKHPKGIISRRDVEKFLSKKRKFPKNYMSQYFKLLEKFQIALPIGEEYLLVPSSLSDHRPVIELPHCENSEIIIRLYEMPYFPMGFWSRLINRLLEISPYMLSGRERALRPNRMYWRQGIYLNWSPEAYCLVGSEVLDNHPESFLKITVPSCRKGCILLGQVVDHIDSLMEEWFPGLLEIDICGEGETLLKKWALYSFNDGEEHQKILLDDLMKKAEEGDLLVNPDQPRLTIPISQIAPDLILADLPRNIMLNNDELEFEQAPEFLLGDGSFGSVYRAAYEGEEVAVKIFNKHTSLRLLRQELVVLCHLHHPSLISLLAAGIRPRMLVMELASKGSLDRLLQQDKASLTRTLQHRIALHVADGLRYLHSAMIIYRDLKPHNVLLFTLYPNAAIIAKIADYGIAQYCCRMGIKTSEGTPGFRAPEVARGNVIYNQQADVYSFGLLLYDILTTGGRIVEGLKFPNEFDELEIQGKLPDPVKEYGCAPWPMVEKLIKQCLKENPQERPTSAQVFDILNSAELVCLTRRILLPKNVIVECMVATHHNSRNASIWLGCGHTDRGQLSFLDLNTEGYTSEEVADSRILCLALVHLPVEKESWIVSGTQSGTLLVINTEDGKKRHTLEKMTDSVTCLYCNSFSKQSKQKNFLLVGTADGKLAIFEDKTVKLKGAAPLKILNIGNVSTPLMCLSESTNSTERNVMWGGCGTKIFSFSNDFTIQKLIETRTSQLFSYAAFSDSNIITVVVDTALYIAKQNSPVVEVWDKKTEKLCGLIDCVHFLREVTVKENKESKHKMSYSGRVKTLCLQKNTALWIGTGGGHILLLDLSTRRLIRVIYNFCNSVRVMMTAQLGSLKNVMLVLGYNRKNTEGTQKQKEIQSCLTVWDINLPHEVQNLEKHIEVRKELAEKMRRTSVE
Description: FIGS. 11A-11C, Dose-response curves (upper panels) for the inhibition of the in vitro LRRK2 kinase activity by the group1 Nbs: Nb1 (FIG. 11A), Nb6 (FIG. 11B) and Nb23 (FIG. 11C), where the Nb concentration was varied from 200 or 150 μM to 0.006 μM in a two-fold serial dilution. The two lower panels show the Michaelis-Menten curves obtained for LRRK2 at varying concentrations of ATP and a fixed (sub-saturating) concentration of peptide substrate (AQT0615), and at varying concentrations of Nb1 (FIG. 11A), Nb6 (FIG. 11B) and Nb23 (FIG. 11C), and the corresponding linearizations according to the Lineweaver-Burk method (double-reciprocal plot). The Nb concentrations used are indicated below the plots. Each datapoint reflects the average (±SD) of three independent measurements.
To further confirm this, we set out to determine the mechanism of inhibition (competitive vs. uncompetitive vs. mixed/non-competitive) of these three Nbs vis-h-vis ATP as substrate, using our peptide phosphorylation assays as output. To this end, full Michaelis-Menten curves were obtained at a fixed (probably sub-saturating) concentration of peptide substrate (10 μM) and varying concentrations of ATP (FIGS. 11A-11C). […] This confirms that these Nbs are not competing with ATP for binding and that they inhibit the reaction by binding on an allosteric site, which is in agreement with the ELISA and CL-MS epitope mapping data. […] For CA12618, fitting on the same model yields a Kic^app of 5±1 μM with an α-value of 1.6±0.4, corresponding a Kic^app of 5 μM and a Kic^app of […]. For the kinase domain-binding CA13612, the linearized curves intersect closer to the Y-axis indicating a mechanism which is more ATP-competitive like. […] Fitting on a mixed inhibition model for CA13612 gives a Kic^app of 9±1 μM with an α-value of 7.5±1.9, corresponding a Kic^app of 9 μM and a Kic^app of 66 μM.
To determine the mechanism of inhibition and apparent Ki (Ki^app) values of CA12610, CA12618, CA13612 the PhosphoSens® Protein Kinase Assay (AssayQuant Technologies Inc.) in combination with the AQT0615 peptide substrate was used. Full Michaelis-Menten curves (relative velocity versus [ATP]) in presence of different Nb concentrations were collected at 30° C. in a buffer consisting of 50 mM HEPES pH 7.5, 0.1% Brij-35, 50 mM NaCl, 10 mM MgCl2 and […], using a fixed concentration of AQT0615 (10 μM) and varying concentrations of ATP. The LRRK2 concentration was chosen such that initial rates (linear fluorescence versus time curves) were obtained, and LRRK2, ATP and the Nbs were preincubated at 4° C. for 30 min prior to starting the reaction by adding the peptide substrate. The Michaelis-Menten curves for the different Nb concentrations were globally fit on a mixed-inhibition model using GraphPad Prism, according to the equation:
(with Kic^app=Ki^app and Ki^app−a·Ki^app)
Additionally, as a diagnostic tool, Michaelis-Menten curves were linearized using the Lineweaver-Burk (double reciprocal) plot.

Molecule | colocalization with endogenous LRRK2 on phagosomes [1] | mechanism of inhibition vis-a-vis ATP as substrate [2] | α-value [2]
B1 | did not colocalize with endogenous LRRK2 | – | –
B2 | LRRK2 recruitment to phagosomes was slightly detectable | mixed-type inhibition | 1.8±0.5
B3 | clearly colocalized with LRRK2 on zymosan-containing phagosomes | – | –
B4 | clearly colocalized with LRRK2 on zymosan-containing phagosomes | mixed-inhibition mechanism | 7.5±1.9
B5 | LRRK2 recruitment to phagosomes was slightly detectable | mixed-type inhibition | 1.6±0.4
